Numbering of substitutions follows the chain as printed. In names and notes the source's numbering stands. Entries after “also recorded” stand apart in the source; their conditions may differ.
B1: glucagon-like peptide 1 receptor (GLP-1R), wild-type, P43220 T207A (protein)
chain: RPQGATVSLWETVQKWREYRRQCQRSLTEDPPPATDLFCNRTFDEYACWPDGEPGSFVNVSCPWYLPWASSVPQGHVYRFCTAEGLWLQKDNSSLPWRDLSECEESKRGERSSPEEQLLFLYIIYTVGYALSFSALVIASAILLGFRHLHCTRNYIHLNLFASFILRALSVFIKDAALKWMYSAAAQQHQWDGLLSYQDSLSCRLVFLLMQYCVAANYYWLLVEGVYLYTLLAFSVLSEQWIFRLYVSIGWGVPLLFVVPWGIVKYLYEDEGCWTRNSNMNYWLIIRLPILFAIGVNFLIFVRVICIVVSKLKANLMCKTDIKCRLAKSTLTLIPLLGTHEVIFAFVMDEHARGTLRFIKLFTELSFTSFQGLMVAILYCFVNNEVQLEFRKSWERWRLEHLHIQRDSSMKPLKCPTSSLSSGATAGSSMYTATCQASCS
B2: glucagon-like peptide 1 receptor (GLP-1R), wild-type, P43220 K202A (protein)
chain: B1 chain with K179A, A184T
B3: glucagon-like peptide 1 receptor (GLP-1R), wild-type, P43220 Q211A (protein)
chain: B1 chain with A184T, Q188A
B4: glucagon-like peptide 1 receptor (GLP-1R), wild-type, P43220 E294A (protein)
chain: B1 chain with A184T, E271A
B5: glucagon-like peptide 1 receptor (GLP-1R), wild-type, P43220 N302A (protein)
chain: B1 chain with A184T, N279A

Experiments:
human GLP-1R wildtype [1] = target: T1, human GLP-1R wildtype (Homo sapiens, UniProt P43220); experiment: ERK1/2 phosphorylation; type: cell-based; details: normalized to FBS; n=3, duplicate; Figure S7
T1 sequence (P43220 24-463): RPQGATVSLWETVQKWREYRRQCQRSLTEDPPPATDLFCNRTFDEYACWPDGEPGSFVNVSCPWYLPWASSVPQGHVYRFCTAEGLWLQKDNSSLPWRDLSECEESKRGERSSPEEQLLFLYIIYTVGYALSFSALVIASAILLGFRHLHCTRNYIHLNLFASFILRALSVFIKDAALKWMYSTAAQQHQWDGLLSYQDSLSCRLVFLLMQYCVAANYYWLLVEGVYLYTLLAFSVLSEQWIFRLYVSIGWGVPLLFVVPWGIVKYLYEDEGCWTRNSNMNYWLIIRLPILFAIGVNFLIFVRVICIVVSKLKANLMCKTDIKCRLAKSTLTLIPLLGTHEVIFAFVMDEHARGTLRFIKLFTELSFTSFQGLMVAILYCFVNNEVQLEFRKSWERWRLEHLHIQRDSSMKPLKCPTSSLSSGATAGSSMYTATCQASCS

human GLP-1R wildtype [2] = target: T1, human GLP-1R wildtype; experiment: cAMP accumulation; type: cell-based; details: normalized to forskolin; n=3, duplicate; Figure S7
human GLP-1R R190A = experiment: cAMP production at R190A mutant; type: cell-based; details: Figure S3
Experimental: For cAMP assays, cells were stimulated for 30 min in the presence of the phosphodiesterase inhibitor IBMX and then lysed.
Dulbecco’s Modified Eagle’s Medium (DMEM) and Fluo-4 AM were purchased
from Invitrogen (Carlsbad, CA, USA). Foetal bovine serum (FBS) was purchased from Thermo
Electron Corporation (Melbourne, VIC, Australia). AlphaScreen reagents, 384-well opti and
proxiplates were purchased from PerkinElmer Life and Analytical Sciences (Waltham, MA, USA).
All other reagents were purchased from
Sigma-Aldrich (St. Louis, MO, USA) or BDH Merck (Melbourne, Vic, Australia) and were of an
Receptor mutagenesis. To study the influence of ECL amino acids, and R190 on receptor function,
the desired mutations were introduced to an N-terminally double c-myc labeled wild-type human GLP-
1R in the pEF5/FRT/V5-DEST destination vector (Invitrogen); this receptor had equivalent
Mutagenesis was carried out using oligonucleotides for
site-directed mutagenesis purchased from GeneWorks (HindMarsh, SA, Australia) and the
QuikChangeTM site-directed mutagenesis kit (Stratagene) and confirmed by automated sequencing
Cell culture: Stable transfections; Wild-type and mutant human GLP-1Rs were isogenically
integrated into FlpIn-Chinese hamster ovary (FlpInCHO) cells (Invitrogen) and selection of receptor-
expressing cells accomplished by treatment with 600 µg ml-1 hygromycin-B as previously described […]

exendin-4, P26349 = experiment: radioligand inhibition binding (competition with 125I-exendin-4(9-39)); details: chain shown with the change;; read off a plot

Molecule | log10 ratio (exendin-4, P26349) | further results
GLP-1(9-36)NH2 |  | pERK1/2 response (human GLP-1R wildtype [1]): can still promote pERK1/2; also recorded: maintains the ability to promote pERK1/2; cAMP response (human GLP-1R wildtype [2]): unable to activate the cAMP pathway; also recorded: unable to generate a cAMP response
modified oxyntomodulin: oxyntomodulin with Q^3 substituted with E (HSEGTFTSDYSKYLDSRRAQDFVQWLMNTKRNRNNIA; Oxyntomodulin; UniProt P01275 53-89, looked up, variant Q3E) |  | requirement of R190 for cAMP production (human GLP-1R R190A): required for cAMP production
B1 | -0.2 ΔpKi | 
B2 | -0.25 ΔpKi | 
B3 | -0.2 ΔpKi | 
B4 | 0.1 ΔpKi | 
B5 | -1.2 ΔpKi | 

From PMC4912689, “The Extracellular Surface of the GLP-1 Receptor Is a Molecular Trigger for Biased Agonism” (Cell, 2016)
